{"source": "patent US20020123068A1", "about": "“Water-soluble, fluorescent, & electrophoretically mobile peptidic substrates for enzymatic reactions and methods for their use in high-throughput screening assays” (priority 2001, published 2002)", "key": {"[1]": {"test": "Solubility of peptides and fluorescent peptide conjugates in aqueous buffer", "assay_type": "physicochemical"}, "[2]": {"molecular_target": "T1, protein kinase A (PKA) (Bos taurus, UniProt P00517)", "T1 construct": "purchased Promega (Madison, WI)", "test": "Protein kinase A phosphorylation assay (PepTag assay kit), agarose gel electrophoresis readout", "assay_type": "biochemical", "procedure": "The fluorescent peptides were assayed with protein kinase A (PKA) using the PepTag assay kit from Promega (Madison, WI). The concentrations of the peptides in the assay were 60 μM, and the concentration of ATP was 1 mM. After completion of the assay the 25 μL reaction mixtures were spiked with 5 μL of 50% glycerol and submitted to gel electrophoresis in a 0.8% horizontal agarose slab in 50 mM TRIS HCl, pH 8.0. The gels were imaged with a fluorescence imager. The results appear in FIG. 1. The Lissamine Kemptide reaction mixtures (− & + kinase) are included as controls. It is clear that both isomers of N-(TXR)LRRASLG [SEQ. ID NO."}, "[3]": {"molecular_target": "T2, SRC Kinase (Homo sapiens, UniProt P12931)", "test": "SRC kinase assay of fluorescent peptidic substrates, agarose gel electrophoresis readout", "assay_type": "biochemical", "conditions": "for substrate of SRC kinase (FIG. 4): peptide 20 μM, 10 units SRC kinase, 1 h at room temperature", "procedure": "An assay of the fluorescent peptidic substrate was performed in the presence of SRC Kinase. The peptide concentration was 10 μM, and the ATP concentration was 100 μM. The reaction proceeded in a buffer comprising 25 mM sodium (N-[2-hydroxyethyl]piperazine-N′-[2-ethanesulfonate]), 20 mM magnesium chloride, pH 7.4 for 90 min at room temperature, and the reaction mixture was submitted to gel electrophoresis in a 0.8% agarose slab at pH 8.0. Nearly 75% conversion of the substrate to product took place, and the substrate and product migrated in opposite directions. The results appear in FIG. 3.\nA kinase assay was performed with each of these peptides as substrates. The concentrations of the Ac-C-[S-(BTR-Jeff)]EEFIYGAFKKKK [SEQ. ID NO. 3] and Ac-C-[S-(BTR-Jeff)]EEFIYGAFRRRR [SEQ. ID NO. 4] were 20 μM, respectively. The ATP concentration in each reaction was 100 μM, and 10 units of SRC kinase were added per reaction. The reactions proceeded at room temperature for 1 h. The reaction mixtures were spiked with 50% glycerol to give a final concentration of 10%. The samples (25 μL) were submitted to gel electrophoresis on a 0.8% agarose slab in 50 mM TRIS HCl, pH 8.0.\nThe SRC substrate Ac-C-[S-(TXR-Jeff)]EEFIYGAFKKKK [SEQ. ID NO. 5] was prepared and assayed as described by the method in Example 5 with the exceptions that TXR-Jeffamine-BAA was used as the fluorophore and the assay was allowed to proceed overnight. The results of the assay appear in FIG. 5. The anode is to the left and the cathode to the right. N-(TXR)-LRRASLG [SEQ. ID NO. 11] (Texas Red labeled Kemptide) and its phosphorylated derivative were included as mobility standards."}, "[4]": {"molecular_target": "T2, SRC Kinase", "conditions": "screen done by investigators at Selectide; cited from earlier work"}, "[5]": {"test_system": "T3, C-[S-(TXR-Jeff)]EEEFIYGAFKKKK", "T3 sequence": "CEEEFIYGAFKKKK"}, "[6]": {"test_system": "T4, conjugate comprising just the BODIPY630/650 and Kemptide", "T4 sequence": "LRRASLG"}}, "note": "Where a SMILES comes first, the peptide text is derived from it. Where no end group is shown, it is not given here. Side-chain parts run from the residue outwards. Texas Red = Texas Red: fluorescent dye"}
{"molecule": "CC[C@H](C)[C@H](NC(=O)[C@H](Cc1ccccc1)NC(=O)[C@H](C)NC(=O)[C@H](C)NC(=O)[C@@H](N)CS)C(=O)N[C@@H](Cc1ccc(O)cc1)C(=O)NCC(=O)N[C@@H](C)C(=O)N[C@@H](Cc1ccccc1)C(=O)N[C@@H](CCCCN)C(=O)O", "note": "[CAAFIYGAFK] (H-CAAFIYGAFK-OH; N-terminus and C-terminus assumed)", "values": [{"measurement": "solubility", "setting": "[1]", "result": "Insolubility"}]}
{"molecule": "(BODIPY-PEG)-labeled Kemptide: BODIPY630/650 coupled to Kemptide LRRASLG through a 3,400 molecular weight PEG spacer (not fully specified; also: BODIPY630/650 label, attachment site not given here)", "values": [{"measurement": "phosphorylation by Protein Kinase A (Example 3, FIG. 2)", "setting": "[2]", "result": "successfully phosphorylated"}]}
{"molecule": "Ac-C-[S-(BTR-Jeff)]EEFIYGAFKKKK: BODIPY TR-Jeffamine ED-900 conjugate of N-acetylated peptide Ac-CEEFIYGAFKKKK (Ac-C([Jeffamine ED‑900-BODIPY TR])EEFIYGAFKKKK)", "values": [{"measurement": "substrate of SRC kinase (FIG. 4)", "setting": "[3]; ATP 100 μM", "result": "is a substrate of SRC kinase"}]}
{"molecule": "Ac-C-[S-(BTR-Jeff)]EEFIYGAFRRRR: BODIPY TR-Jeffamine ED-900 conjugate of N-acetylated peptide Ac-CEEFIYGAFRRRR (Ac-C([Jeffamine ED‑900-BODIPY TR])EEFIYGAFRRRR)", "values": [{"measurement": "quality/reactivity as substrate for SRC kinase (in words)", "setting": "[3]", "result": "did not result in a sufficiently reactive substrate"}, {"measurement": "substrate of SRC kinase (FIG. 4)", "setting": "[3]; ATP 100 μM", "result": "is not"}, {"measurement": "solubility", "setting": "[1]", "result": "much lower"}]}
{"molecule": "Ac-C-[S-(TXR-Jeff)]EEFIYGAFKKKK: Texas Red-Jeffamine ED-900 conjugate of N-acetylated peptide Ac-CEEFIYGAFKKKK (Example 6) (Ac-C([Jeffamine ED‑900-Texas Red])EEFIYGAFKKKK)", "values": [{"measurement": "quality/reactivity as substrate for SRC kinase (in words)", "setting": "[3]", "result": "good reactivity"}]}
{"molecule": "C-[S-(TXR-Jeff)]EEEFIYGAFKKKK: Texas Red linked through a Jeffamine ED-900 PEG spacer to the cysteine thiol of peptide CEEEFIYGAFKKKK; SRC kinase substrate (C([Jeffamine ED‑900-Texas Red])EEEFIYGAFKKKK)", "values": [{"measurement": "quality/reactivity as substrate for SRC kinase (in words)", "setting": "[3]", "result": "good substrate"}, {"measurement": "Km", "setting": "[3]; fluorescent peptide as substrate for SRC Kinase", "result": 8.5, "unit": "µM"}, {"measurement": "conversion of the substrate to product", "setting": "[3]; peptide 10 μM, ATP 100 μM, pH 7.4, 90 min at room temperature", "result": "~75", "unit": "%"}]}
{"molecule": "FIYGAFK (Test Substrate Sequence)", "values": [{"measurement": "active substrate of SRC Kinase in resin-bound peptide library screen", "setting": "[4]", "result": "active substrate"}]}
{"molecule": "N-(TXR)LRRASLG: Texas Red-X labeled Kemptide prepared for comparison (Example 1) ({Texas Red‑X}-LRRASLG)", "values": [{"measurement": "substrate for PKA (FIG. 1)", "setting": "[2]; peptide 60 μM, ATP 1 mM", "result": "substrates for PKA"}]}
{"molecule": "SRC kinase", "values": [{"measurement": "Km (kinase assay)", "setting": "[5]", "result": "Km=8.5 µM"}, {"measurement": "conversion of the substrate to product (kinase assay, agarose gel electrophoresis)", "setting": "[5]", "result": "Nearly 75% conversion of the substrate to product took place"}]}
{"molecule": "conjugate comprising just the BODIPY630/650 and Kemptide: BODIPY630/650 coupled to Kemptide LRRASLG without PEG spacer (also: BODIPY630/650 coupled without spacer, site not given here) [reference compound]", "values": [{"measurement": "phosphorylation by Protein Kinase A (Example 3, FIG. 2)", "setting": "[2]", "result": "could not phosphorylate"}, {"measurement": "solubility", "setting": "[1]", "result": "so low"}]}
{"molecule": "protein kinase A (PKA)", "values": [{"measurement": "phosphorylation", "setting": "[6]", "result": "its solubility was so low that Protein Kinase A could not phosphorylate it"}]}
